Laboratory results published in article PMC12038025.

How the values were obtained:
O35161 = assay: SEC-MALS
[1] = molecular target: CELSR1 extracellular region, CADH1 through GAIN domains (residues 255-2477) (mouse) (UniProt O35161); assay: SEC-MALS

Row | stoichiometry N [1] | Substance | percent dimer in the main peak (O35161)
1 |  | CELSR1 extracellular region, CADH1 through GAIN domains (residues 255-2477) | roughly 60% dimer
2 | 2 | CELSR1 extracellular region, CADH1 through GAIN domains (residues 255-2477), O35161 255-2477 | 
